Assay results: patent US9752163B2, “Process for the production of isoprenol from mevalonate employing a diphosphomevalonate decarboxylase” (Global Bioenergies, priority 2009, dated 2017)

B1: Picrophilus torridus MDP decarboxylase: diphosphomevalonate (MDP) decarboxylase EC 4.1.1.33 from Picrophilus torridus, expressed in E. coli from the native or codon-optimized gene (protein, listed as Picrophilus torridus)
chain: MENYNVKTRAFPTIGIILLGGISDKKNRIPLHTTAGIAYTGINNDVYTETKLYVSKDEKCYIDGKEIDLNSDRSPSKVIDKFKHEILMRVNLDDENNLSIDSRNFNILSGSSDSGAAALGECIESIFEYNINIFTFENDLQRISESVGRSLYGGLTVNYANGRESLTEPLLEPEAFNNFTIIGAHFNIDRKPSNEIHENIIKHENYRERIKSAERKAKKLEELSRNANIKGIFELAESDTVEYHKMLHDVGVDIINDRMENLIERVKEMKNNFWNSYIVTGGPNVFVITEKKDVDKAMEGLNDLCDDIRLLKVAGKPQVISKNF
modifications: DSM 9790
notes: diphosphomevalonate (MDP) decarboxylase EC 4.1.1.33 from Picrophilus torridus, expressed in E. coli from the native or codon-optimized gene
B2: Thermoplasma volcanium (accession number Q97BY2): MDP decarboxylase enzyme inferred from the genome of Thermoplasma volcanium (protein, listed as Thermoplasma volcanium)
chain: MLHHHHHHSNSSITSVAYPTIGVVLLGGIANEKTRTPLHTSAGIAYTDSCGSIRTESTIYGDSEMHIYFNGTESKDENRSVKSVLERYRNELQSFFGKKDVSYSSLNYGILSGSSDAGAASIGAILSFIDKKNDIHDIENDIRMISESAGRSLHGGLTITWSDGYSAYTERVLGPEHFNNYAIVGFSFDYPRNPSDTIHQNIIKSKRYKQRTIDADEHAHEIKEMARTDDIEGIFEKAEEDTEEYHSILREVGVLVIRENMQKLIEFIKILRKEFWNSYIVTGGSNVYVIVRRDDLERLIHIKNTFGSKPKILNVAGPAWIKKVESD
B3: Thermoplasma acidophilum (accession number Q9H1N1): MDP decarboxylase enzyme inferred from the genome of Thermoplasma acidophilum (protein, listed as Thermoplasma acidophilum)
chain: MLHHHHHHTYRSIGSTAYPTIGVVLLGGIANPVTRTPLHTSAGIAYSDSCGSIRSETRIYADEATHIYFNGTESTDDNRSVRRVLDRYSSVFEEAFGTKTVSYSSQNFGILSGSSDAGAASIGAAILGLKPDLDPHDVENDLRAVSESAGRSLFGGLTITWSDGFHAYTEKILDPEAFSGYSIVAFAFDYQRNPSDVIHQNIVRSDLYPARKKHADEHAHMIKEYAKTNDIKGIFDLAQEDTEEYHSILRGVGVNVIRENMQKLISYLKLIRKDYWNAYIVTGGSNVYVAVESENADRLFSIENTFGSKKKMLRIVGGAWHRRPE

Assays:
[1] = Product formation as function of mevalonate concentration (permanganate assay); assay type: biochemical; conditions: purified enzyme, range of mevalonate concentrations (FIG. 6)
Description: (§1) The complete assay for mevalonate decarboxylation contains reaction buffer, 100 mM mevalonate, 40 mM ATP, 10 mM MgCl2, 20 mM KCl, 0.5 mM DTT and enzyme preparation at a concentration ranging from 0.01 to 0.05 mg/ml of protein. 50 mM sodium citrate is used in the range of pH from 4 to 6, and 50 mM Tris-HCl for pH 7 and 7.5. Control reactions are carried out in the absence of enzyme, substrate or co-factor.
The formation of products containing double-bonds is followed by oxidization with alkaline potassium permanganate solution, resulting in increase of absorbance at 420 nm.
To an aliquot of reaction mixture diluted with H2O to 120 μl, 80 μl of permanganate reagent, containing 5 mM KMnO4 and 50 mM NaOH, is added. The mixture is kept at room temperature for 20 min and the absorbance at 420 nm is measured. The calibration curve is prepared using commercial isoprenol.

[2] = Mevalonate decarboxylation activity followed by inorganic phosphate production (ammonium molybdate method); assay type: biochemical
Description: The reaction medium contained 100 mM mevalonate, 40 mM ATP, 10 mM MgCl2, 20 mM KCl, 0.5 mM DTT and enzyme preparation varying from 0.01 to 0.05 mg/ml of protein. 50 mM sodium citrate was used in the range of pH from 4 to 6, and 50 mM Tris-HCl for pH 7 and 7.5. Enzyme-free control assays were carried out in parallel. After 72 h incubation, inorganic phosphate was quantified colorimetrically according to the ammonium molybdate method (Gawronski J D, Benson D R, Anal. Biochem. 327 (2004) 114-118). A 50 μl sample (containing not more than 0.5 μmole of phosphate) was mixed with 150 μl of ammonium molybdate reagent containing 50% v/v acetone, 1.25 N H2SO4, 2.5 mM (NH4)6Mo7O24 and then with 10 μl 1 M citric acid. The mixture was incubated for 2 minutes at room temperature. The absorbance of ammonium phosphomolybdate formed was measured at 355 nm and the quantity of inorganic phosphate estimated using a calibration curve obtained with potassium phosphate.
as §1
Inorganic phosphate concentration is measured by spectroscopic colorimetry according to the ammonium molybdate method (Gawronski J D, Benson D R, Anal. Biochem. 327 (2004) 114-118). A 50 μl aliquot from the reaction assay (containing not more than 0.5 μmole of phosphate) is mixed with 150 μl ammonium molybdate reagent, containing 50% volume acetone, 1.25 N H2SO4, 2.5 mM (NH4)6Mo7O24 and then with 10 μl 1 M citric acid. The mixture is then incubated for 2 minutes at room temperature. The absorbance of ammonium phosphomolybdate formed was measured at 355 nm and the quantity of inorganic phosphate estimated using a calibration curve obtained with potassium phosphate.

Molecule	conversion rate [1]	enzyme activity with mevalonate as substrate ([2]; crude lysate of E. coli, optimized gene versus native sequence (FIG. 4b))	phosphate production with mevalonate as substrate ([2]; library screening, E. coli extracts, 100 mM mevalonate, 40 mM ATP, 72 h incubation)	phosphate production with mevalonate as substrate ([2]; purified proteins (FIG. 5))
B1	increase with the concentration of mevalonate	higher enzyme activity	reproducible increase in phosphate production over the background level	–
B2	–	–	–	significant increase in phosphate production
B3	–	–	–	significant increase in phosphate production
